# Assay results as given in paper PMC4492089, “FOXM1 binds directly to non-consensus sequences in the human genome”.
# Where a chain is given by its changes, count along the chain named.
# T1: FOXM1B DBD WT (GST fusion) (UniProt Q08050-2 235-327)
# T1 sequence: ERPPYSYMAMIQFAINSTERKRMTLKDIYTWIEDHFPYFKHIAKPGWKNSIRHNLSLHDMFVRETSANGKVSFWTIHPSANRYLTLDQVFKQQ
# T2: FOXM1 DBD WT (GST fusion) (UniProt Q08050 235-327)
# T2 sequence: T1 sequence with Q92P, Q93L
# T3: FOXM1 DBD H287A (UniProt Q08050 235-327, H287A)
# T3 sequence: T1 sequence with H53A, Q92P, Q93L
# T4: FOXM1 DBD R286A (UniProt Q08050 235-327, R286A)
# T4 sequence: T1 sequence with R52A, Q92P, Q93L
# T5: FOXM1 DBD S290A (UniProt Q08050 235-327, S290A)
# T5 sequence: T1 sequence with S56A, Q92P, Q93L
# B1: FKH consensus 16-mer (dsDNA)
# DNA 1: AAACAAACAAACAATC
# DNA 2: GATTGTTTGTTTGTTT
# B2: CCNB2 16-mer (dsDNA)
# DNA 1: ACGCGGTATTTGAATC
# DNA 2: GATTCAAATACCGCGT
# B3: HP1BP3 16-mer (dsDNA)
# DNA 1: CCTCAGCCAATCGGGG
# DNA 2: CCCCGATTGGCTGAGG
# B4: MYC P2 TATA box 16-mer (dsDNA)
# DNA 1: TGAGTATAAAAGCCGG
# DNA 2: CCGGCTTTTATACTCA
# Key:
# Settings in all cases: protein: recombinant; tags: GST; label: 5' 6FAM on top strand; blunt
# [1] = target: T1, FOXM1B DBD WT (GST fusion); test: fluorescence polarization; FP: 50 mM Tris-HCl pH 7.5, 5 mM MgCl2, 1 mM DTT, 2% glycerol; protein 80 nM-5 uM; temperature not stated
# [2] = target: T2, FOXM1 DBD WT (GST fusion); test: as above
# FOXM1 DBD H287A = target: T3, FOXM1 DBD H287A; test: as above
# FOXM1 DBD R286A = target: T4, FOXM1 DBD R286A; test: fluorescence polarization; up to 5 uM protein; FP: 50 mM Tris-HCl pH 7.5, 5 mM MgCl2, 1 mM DTT, 2% glycerol; protein 80 nM-5 uM; temperature not stated
# FOXM1 DBD S290A = target: T5, FOXM1 DBD S290A; test: as above
# [3] = target: T1, FOXM1B DBD WT (GST fusion); test: EMSA; FP: 50 mM Tris-HCl pH 7.5, 5 mM MgCl2, 1 mM DTT, 2% glycerol; protein 80 nM-5 uM; temperature not stated
Binder,Kd [1] [nM],Kd [2] [nM],Kd (FOXM1 DBD H287A) [nM],binding result (FOXM1 DBD R286A),binding result (FOXM1 DBD S290A),Kd [3] [nM]
B1,224 ± 45,1100 ± 20,3040 ± 100,no binding,no binding,346 ± 24
B2,436 ± 147,–,–,–,–,–
B3,489 ± 233,–,–,–,–,–
B4,177 ± 79,–,–,–,–,–
